Source: patent publication US20240209086A1 (PETMEDIX, published 2024)
Residue numbers refer to the chain shown, from its start.

T1: canine CD20 on cells (HEK293, MDCK II, CLBL-1 or native B cells) (canine, UniProt Q3C2E2 1-297)
T1 construct: also called dCD20; cCD20
T1 chain: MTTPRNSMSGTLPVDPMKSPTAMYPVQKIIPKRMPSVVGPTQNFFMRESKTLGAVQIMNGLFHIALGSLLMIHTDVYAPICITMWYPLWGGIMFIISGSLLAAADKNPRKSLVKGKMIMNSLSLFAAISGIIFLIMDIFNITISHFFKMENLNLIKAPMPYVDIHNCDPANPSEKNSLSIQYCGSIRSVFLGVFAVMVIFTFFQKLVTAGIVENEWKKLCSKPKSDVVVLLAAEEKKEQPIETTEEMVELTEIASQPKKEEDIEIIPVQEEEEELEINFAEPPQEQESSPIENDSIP

B1: PMX231 (monospecific anti-canine CD20, canine IgG-B, lambda C5) (antibody, V domains shown)
VH: EVQLVESGGDLVKPGGSLRLSCVASGLTFSRYHMSWIRQAPGKGLQWVAYISSGGSSTNYAGSVKGRFTVSRDNAKNTLYLQMNSLRAEDTAVYYCTSLDYWGQGTLVTVSS
VL: SYVLTQLPSKNVTLKQPAHITCGGDNIGSKSVHWYQQKLGQAPVLIIYYDSRRPTGIPERFSGANSGNTATLTISGALAEDEADYYCQVWDSSDNVFGGGTHLTVLG
B2: PMX255 (monospecific anti-canine CD20, canine IgG-B, lambda C5) (antibody, V domains shown)
VH: EVQLVESGGDLVKPGGSLRLSCVASGFTFSRYHMSWIRQAPGKGLQWVAFIDSDGSGARYADAVKGRFTFSRDNAKNTLYLQMNSLRAEDTAVYYCTSLEYWGQGTLVTVSS
VL: B1 VL with I27V, D94A
B3: PMX235 (monospecific anti-canine CD20, canine IgG-B, lambda C5) (antibody, V domains shown)
VH: EVQLVESGGDLVKPGGSLRLSCVASGITFSRYYMNWVRQAPGKGLQWVAYINTGESSTIYSDAVKGRFTISRDNAKNTLYLQMNSLRAEDTAVYYCTTLEYWGQGTLVTVSS
VL: B1 VL with V44A, S51N
B4: PMX254 (monospecific anti-canine CD20, canine IgG-B, lambda C5) (antibody, V domains shown)
VH: B2 VH with A58T, N84S, Y101F
VL: B1 VL with R52S, D94A
B5: PMX268 (monospecific anti-canine CD20, canine IgG-B, lambda C5) (antibody, V domains shown)
VH: EVQLVESGGDLMKPGGSLRLSCVASGITFSGYHMSWVRQAPGKGLQWVAFINSGRKNTAYADAVKGRFTISRDNAKNTLYLQMNSLRAEDTAIYYCTTLEFWGQGTLVTVSS
VL: B1 VL with S31N, A64V, S75N, V89M, D94A
B6: PMX232 (monospecific anti-canine CD20, canine IgG-B, lambda C5) (antibody, V domains shown)
VH: EMQLVESGGDLVKPGESLRLSCVASGISFNNYHMSWVRQAPGKGLQWVAYIDSVGTSTTYADAVKGRFTISRDNAKNTLYLQMNSLRAEDTAVYYCTTFDSWGQGTLVTVSS
VL: B1 VL with D94A
B7: PMX241 (monospecific anti-canine CD20, canine IgG-B, lambda C5) (antibody, V domains shown)
VH: B5 VH with M12V, K56R, N57S, A59S
VL: B1 VL with S75N, V89M, D94V
B8: PMX266 (monospecific anti-canine CD20, canine IgG-B, lambda C5) (antibody, V domains shown)
VH: B6 VH with M2L, E16G, I27F, S28T, N30S, N31R, D52N, V54G, T56S, T59S
VL: B1 VL with R52S, S92I, D94A
B9: PMX239 (monospecific anti-canine CD20, canine IgG-B, lambda C5) (antibody, V domains shown)
VH: B3 VH with I27F, Y50F, N52T, T53S, E55G, I59S, S61G, T98S, L99F, E100D
VL: B1 VL with D50A, R52S, D94A
B10: PMX245 (monospecific anti-canine CD20, canine IgG-B, lambda C5) (antibody, V domains shown)
VH: B1 VH with I37V, S52N, N59D, G62D, S63G, V70I, D100E, Y101D
VL: B1 VL with R52S, D94V
B11: PMX264 (monospecific anti-canine CD20, canine IgG-B, lambda C5) (antibody, V domains shown)
VH: B3 VH with I27F, Y33H, N35S, Y50F, E55R, S56M, I59N, S61A, T98S, E100D
VL: B1 VL with R52S, D94A
B12: PMX234 (monospecific anti-canine CD20, canine IgG-B, lambda C5) (antibody, V domains shown)
VH: ELQLVESGGDLVKPGGSLRLSCVASGFTFSRYYLNWVRQAPGKGLQWVAFITSGGSSTNYADAVKGRFTISRDNAKNTLYLQMNSLRAEDTAVYYCTSFDSWGQGTLVTVSS
VL: B1 VL with R52S, D94A
B13: PMX267 (monospecific anti-canine CD20, canine IgG-B, lambda C5) (antibody, V domains shown)
VH: EMQLVESGGDLVKPGGSLRLSCVASGFTFSRYHMSWVRQAPGKGLQWVAYIDSDGINTNYADAVKGRFTISRDNAKNTLYLQMNSLRAEDTALYYCTTFDYWGQGTLVTVSS
VL: B1 VL with R52S, D94G
B14: PMX253 (monospecific anti-canine CD20, canine IgG-B, lambda C5) (antibody, V domains shown)
VH: B12 VH with L2V, L4M, L34M, F50Y, T52N, S56G, N59S, T97S, S101Y
VL: B1 VL with R52S, D94A
B15: PMX256 (monospecific anti-canine CD20, canine IgG-B, lambda C5) (antibody, V domains shown)
VH: B12 VH with L2V, R31S, Y33H, L34M, N35S, F50Y, T52N, N59S, L81F, S98T
VL: B1 VL with R52S, D94A
B16: PMX263 (monospecific anti-canine CD20, canine IgG-B, lambda C5) (antibody, V domains shown)
VH: B12 VH with L2V, L34M, F50Y, T52N, N59S, E89D, S101Y
VL: B1 VL with R52S, D94A
B17: PMX258 (monospecific anti-canine CD20, canine IgG-B, lambda C5) (antibody, V domains shown)
VH: B3 VH with I27L, E55G, I59S, S61A, T97A, T98S, L99F, E100D
VL: B1 VL with R52S, D94A
B18: PMX237 (monospecific anti-canine CD20, canine IgG-B, lambda C5) (antibody, V domains shown)
VH: B12 VH with L2V, F27L, L34M, F50Y, T52N, N59D, A88V, T97A, S101Y
VL: B1 VL with N11K, P17S, Y49H, R52S, D94A
B19: PMX236 (antibody, V domains shown)
VH: B12 VH with L2V, F27L, L34M, F50Y, T52D, S57P, T97S, S101Y
VL: B1 VL with L4V, K10N, N11T, D94A
notes: also called PMX236 (monospecific anti-canine CD20, canine IgG-B, lambda C5)
B20: PMX247 (monospecific anti-canine CD20, canine IgG-B, lambda C5) (antibody, V domains shown)
VH: B12 VH with L2V, Y33H, L34M, N35S, F50Y, T52N, S57P, T58S, N59S, S101C
VL: B1 VL with D94A
B21: PMX249 (monospecific anti-canine CD20, canine IgG-B, lambda C5) (antibody, V domains shown)
VH: B12 VH with L2V, Y33H, L34M, N35S, F50Y, T52N, N59S, T97A, S101Y
VL: B1 VL with S1P, D94A
B22: PMX257 (monospecific anti-canine CD20, canine IgG-B, lambda C5) (antibody, V domains shown)
VH: EVQLVESGGDLVKPGGSLRLSCVASGFTFSSYHMSWVRQAPGKGLQWVAYINSGGSSTSYADAVKGRFTISRDNAYSTLFLQMNNLRAEDTAVYYCTTLDSWGQGTLVTVSS
VL: B1 VL with R52S, D94A
B23: PMX246 (monospecific anti-canine CD20, canine IgG-B, lambda C5) (antibody, V domains shown)
VH: B13 VH with D52N, D54G, I56S, N57P, L93V, F99Y, Y101Q
VL: B1 VL with N11S, R52S, S92T, D94A
B24: PMX261 (monospecific anti-canine CD20, canine IgG-B, lambda C5) (antibody, V domains shown)
VH: B12 VH with L2V, F27I, L34M, F50Y, T52D, S57P, N59T, N77K, T78A, S101Y
VL: B1 VL with R52S, Y86F, D94A
B25: PMX262 (monospecific anti-canine CD20, canine IgG-B, lambda C5) (antibody, V domains shown)
VH: B12 VH with L2V, F27I, L34M, F50Y, T52N, S57P, N59T, S101Y
VL: B1 VL with V44I, S51T, R52S, D94A
B26: PMX238 (monospecific anti-canine CD20, canine IgG-B, lambda C5) (antibody, V domains shown)
VH: B3 VH with I27F, Y33H, N35S, Y50F, E55R, I59N, S61A, K65A, T97S, E100D
VL: B1 VL with R52S, D94A
B27: PMX252 (monospecific anti-canine CD20, canine IgG-B, lambda C5) (antibody, V domains shown)
VH: B22 VH with S31R, Y76K, S77N, F80Y, N85S, T97A, T98S, S101Y
VL: B1 VL with R52S, S92I, D94A
B28: PMX243 (monospecific anti-canine CD20, canine IgG-B, lambda C5) (antibody, V domains shown)
VH: B13 VH with M2V, D52N, D54G, I56S, N59D, A61T, L93V, T97S, T98S, F99L
VL: B1 VL with S51R, S92R, D94G
B29: PMX248 (monospecific anti-canine CD20, canine IgG-B, lambda C5) (antibody, V domains shown)
VH: B13 VH with M2V, D52N, D54G, I56S, N57T, N59S, L93I, Y95F, T98S, F99L
VL: B1 VL with V44I, D94A
B30: PMX240 (monospecific anti-canine CD20, canine IgG-B, lambda C5) (antibody, V domains shown)
VH: B13 VH with M2V, F27L, Y50F, D52N, D54G, G55R, I56S, N57D, N59T, L93V
VL: B1 VL with V44A, R52S, D94A
B31: PMX259 (monospecific anti-canine CD20, canine IgG-B, lambda C5) (antibody, V domains shown)
VH: B12 VH with L2V, Y33H, L34M, N35S, F50Y, T52N, N59S, T97A, S101Y
VL: B1 VL with R52N, D94G
B32: PMX260 (monospecific anti-canine CD20, canine IgG-B, lambda C5) (antibody, V domains shown)
VH: B2 VH with S30R, I37V, F50Y, D54G, A58T, R59S, F70I, T97S, E100D
VL: B1 VL with D94G
B33: PMX242 (monospecific anti-canine CD20, canine IgG-B, lambda C5) (antibody, V domains shown)
VH: B13 VH with M2I, D52N, S53T, D54G, I56S, L93V, F99L, Y101S
VL: B1 VL with S9F, D94V

Target: T1, canine CD20 on cells (HEK293, MDCK II, …)
Assay: flow cytometry, canine CD20 HEK293 cells, 10 µg/ml, FITC anti-canine IgG
Procedure: A CD20 binding screen was performed on candidate proteins produced from the canine CD20 immunisation as described in Examples 2 and 3. CHO cells supernatants containing candidate antibodies were diluted to 10 μg/ml in FACS buffer (PBS containing 3% FBS) and screened for their ability to bind canine CD20 expressed on cell surface. In brief, 1-2×10⁵ canine CD20-expressing HEK cells were incubated with candidate mAbs for one hour at 4° C., at a fixed concentration of 10 μg/ml followed by incubation with 5 μg/ml of FITC-conjugated anti-canine IgG secondary antibody (Bethyl Laboratories) for 1 hour at 4° C. Cells incubated with anti-canine IgG FITC secondary antibody and without primary anti-canine CD20 antibody, or with isotype control primary antibody, were used as negative controls. The data were acquired on either a Beckman Coulter CytoFLEX or a BD Accuri C6 Plus flow cytometer and analysed using FlowJo software.

Binding result, binds:
B1
B2
B3
B4
B5
B6
B7
B8
B9
B10
B11
B12
B13
B14
B15
B16
B17
B18
B19
B20
B21
B22
B23
B24
B25
B26
B27
B28
B29
B30
B31
B32
B33
